# Experimental data: the supplement of paper PMC9112550, “Optimization of the antimicrobial peptide Bac7 by deep mutational scanning” (BMC Biology, 2022)
# Test system: Escherichia coli TOP10
# Experiment: shrunken log2 fold change of peptide-encoding DNA abundance (4.5 h post-induction vs induction); higher = less antimicrobial activity (less host growth inhibition)
# Conditions: time post-induction: 4.5 h; library: site-saturation at positions 5, 18, 19, 20
# 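Also: peptides expressed intracellularly from a pBAD plasmid library in pooled LB shake-flask culture, induced with 0.3% L-arabinose, DNA abundance read by NGS, three biological replicates, DESeq2 with apeglm shrinkage.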
row,Sequence,shrunken log2 fold change
1,RRIRWRPPRLPRPRPRPGHRPRP,0.315
2,RRIRDRPPRLPRPRPRPMTLPRP,0.0841
3,RRIRTRPPRLPRPRPRPTVYPRP,-0.0364
4,RRIRLRPPRLPRPRPRPRACPRP,0.223
5,RRIRNRPPRLPRPRPRPDGNPRP,0.102
6,RRIRFRPPRLPRPRPRPIVCPRP,-0.406
7,RRIRLRPPRLPRPRPRPYWYPRP,-0.542
8,RRIRARPPRLPRPRPRPKIFPRP,-0.0226
9,RRIRERPPRLPRPRPRPMQRPRP,-0.00559
10,RRIRNRPPRLPRPRPRPLAKPRP,0.249
11,RRIRKRPPRLPRPRPRPFFRPRP,0.0596
12,RRIRNRPPRLPRPRPRPRMYPRP,-0.613
13,RRIRERPPRLPRPRPRPCFSPRP,-0.0538
14,RRIRCRPPRLPRPRPRPQKEPRP,-0.104
15,RRIRTRPPRLPRPRPRPDQLPRP,-0.0381
16,RRIRRRPPRLPRPRPRPIFGPRP,0.338
17,RRIRCRPPRLPRPRPRPPWNPRP,-0.0539
18,RRIRHRPPRLPRPRPRPQDTPRP,-0.374
19,RRIRMRPPRLPRPRPRPRSEPRP,0.81
20,RRIRARPPRLPRPRPRPPWYPRP,0.139
21,RRIRMRPPRLPRPRPRPCLNPRP,-0.0184
22,RRIRMRPPRLPRPRPRPDDCPRP,0.681
23,RRIRCRPPRLPRPRPRPMDSPRP,-0.142
24,RRIRGRPPRLPRPRPRPDIGPRP,0.663
25,RRIRGRPPRLPRPRPRPKMIPRP,0.425

row,Sequence,shrunken log2 fold change
1,RRIRLRPPRLPRPRPRPSHWPRP,-0.0446
2,RRIRNRPPRLPRPRPRPNQAPRP,-0.0207
3,RRIRTRPPRLPRPRPRPTTMPRP,-0.109
4,RRIRNRPPRLPRPRPRPHIFPRP,-0.0701
5,RRIRQRPPRLPRPRPRPCRSPRP,0.00709
6,RRIRPRPPRLPRPRPRPHRNPRP,-0.11
7,RRIRTRPPRLPRPRPRPEDYPRP,-0.00822
8,RRIRVRPPRLPRPRPRPCHDPRP,-0.122
9,RRIRFRPPRLPRPRPRPASAPRP,0.47
10,RRIRCRPPRLPRPRPRPHVWPRP,-0.185
11,RRIRLRPPRLPRPRPRPPKTPRP,0.175
12,RRIRIRPPRLPRPRPRPWDMPRP,-0.00715
13,RRIRVRPPRLPRPRPRPFFRPRP,0.0448
14,RRIRFRPPRLPRPRPRPLSQPRP,-0.271
15,RRIRFRPPRLPRPRPRPCMFPRP,-0.556
16,RRIRMRPPRLPRPRPRPFMHPRP,-0.647
17,RRIRKRPPRLPRPRPRPRMPPRP,0.363
18,RRIRTRPPRLPRPRPRPLEQPRP,-0.102
19,RRIRHRPPRLPRPRPRPPLYPRP,-0.151
20,RRIRRRPPRLPRPRPRPILKPRP,0.333
21,RRIRHRPPRLPRPRPRPLIFPRP,-0.38
22,RRIRQRPPRLPRPRPRPKYFPRP,0.0276
23,RRIRYRPPRLPRPRPRPPRLPRP,0.0944
24,RRIRYRPPRLPRPRPRPYDSPRP,-0.0285
25,RRIRRRPPRLPRPRPRPNNGPRP,-0.277

row,Sequence,shrunken log2 fold change
1,RRIRYRPPRLPRPRPRPIPSPRP,-0.0334
2,RRIRWRPPRLPRPRPRPQPVPRP,0.135
3,RRIRGRPPRLPRPRPRPNWIPRP,-0.034
4,RRIRARPPRLPRPRPRPRTWPRP,0.669
5,RRIRKRPPRLPRPRPRPEPTPRP,1.47
6,RRIRIRPPRLPRPRPRPWPVPRP,-0.0355
7,RRIRKRPPRLPRPRPRPLKIPRP,2.15
8,RRIRNRPPRLPRPRPRPYKNPRP,-0.941
9,RRIRKRPPRLPRPRPRPMWSPRP,0.123
10,RRIRQRPPRLPRPRPRPRFCPRP,-0.16
11,RRIRSRPPRLPRPRPRPEDLPRP,-0.0115
12,RRIRPRPPRLPRPRPRPGWIPRP,-0.0354
13,RRIRMRPPRLPRPRPRPGREPRP,1.02
14,RRIRNRPPRLPRPRPRPRAVPRP,1.21
15,RRIRFRPPRLPRPRPRPFMDPRP,-0.00928
16,RRIRTRPPRLPRPRPRPLYDPRP,-0.824
17,RRIRGRPPRLPRPRPRPDSPPRP,0.136
18,RRIRKRPPRLPRPRPRPFIRPRP,-0.21
19,RRIRTRPPRLPRPRPRPLARPRP,-0.0885
20,RRIRDRPPRLPRPRPRPKPTPRP,0.0678
21,RRIRRRPPRLPRPRPRPILDPRP,0.0526
22,RRIRFRPPRLPRPRPRPVCYPRP,-0.495
23,RRIRKRPPRLPRPRPRPYGVPRP,0.0715
24,RRIRFRPPRLPRPRPRPAPNPRP,0.408
25,RRIRWRPPRLPRPRPRPSRRPRP,0.215

row,Sequence,shrunken log2 fold change
1,RRIRQRPPRLPRPRPRPNNSPRP,-0.904
2,RRIRHRPPRLPRPRPRPVQTPRP,-0.011
3,RRIRGRPPRLPRPRPRPQPRPRP,0.9
4,RRIRSRPPRLPRPRPRPYVLPRP,-0.277
5,RRIRHRPPRLPRPRPRPTKVPRP,-0.0672
6,RRIRPRPPRLPRPRPRPGGLPRP,0.131
7,RRIRCRPPRLPRPRPRPAIYPRP,-0.17
8,RRIRPRPPRLPRPRPRPATHPRP,0.0822
9,RRIRSRPPRLPRPRPRPHSRPRP,-0.322
10,RRIRMRPPRLPRPRPRPPKKPRP,1.01
11,RRIRLRPPRLPRPRPRPHIVPRP,-0.105
12,RRIRRRPPRLPRPRPRPTWKPRP,0.112
13,RRIRIRPPRLPRPRPRPDYEPRP,-0.0916
14,RRIRCRPPRLPRPRPRPLVNPRP,-0.841
15,RRIRQRPPRLPRPRPRPLHIPRP,-0.423
16,RRIRERPPRLPRPRPRPDYPPRP,0.00237
17,RRIRDRPPRLPRPRPRPQAMPRP,0.133
18,RRIRARPPRLPRPRPRPQICPRP,0.176
19,RRIRRRPPRLPRPRPRPLNRPRP,-0.169
20,RRIRQRPPRLPRPRPRPGWDPRP,0.135
21,RRIRKRPPRLPRPRPRPDSTPRP,-0.0499
22,RRIRGRPPRLPRPRPRPPDYPRP,0.135
23,RRIRFRPPRLPRPRPRPVENPRP,-0.109
24,RRIRPRPPRLPRPRPRPDCYPRP,-0.0771
25,RRIRIRPPRLPRPRPRPWPSPRP,0.193

row,Sequence,shrunken log2 fold change
1,RRIRGRPPRLPRPRPRPPEQPRP,1.29
2,RRIRHRPPRLPRPRPRPQEMPRP,-0.0755
3,RRIRSRPPRLPRPRPRPTYKPRP,-0.495
4,RRIRGRPPRLPRPRPRPEAFPRP,1.86
5,RRIRQRPPRLPRPRPRPHYGPRP,0.0133
6,RRIRMRPPRLPRPRPRPDHFPRP,-0.0876
7,RRIRARPPRLPRPRPRPHENPRP,0.127
8,RRIRFRPPRLPRPRPRPPQLPRP,0.274
9,RRIRPRPPRLPRPRPRPPWLPRP,0.57
10,RRIRMRPPRLPRPRPRPLCTPRP,1.19
11,RRIRWRPPRLPRPRPRPDVQPRP,0.0431
12,RRIRQRPPRLPRPRPRPEMNPRP,0.0404
13,RRIRHRPPRLPRPRPRPILMPRP,-0.00291
14,RRIRMRPPRLPRPRPRPRSYPRP,0.068
15,RRIRFRPPRLPRPRPRPFTRPRP,0.0083
16,RRIRNRPPRLPRPRPRPSEPPRP,-0.0146
17,RRIRARPPRLPRPRPRPDSNPRP,0.179
18,RRIRFRPPRLPRPRPRPIYAPRP,-0.143
19,RRIRNRPPRLPRPRPRPCQAPRP,-0.112
20,RRIRFRPPRLPRPRPRPCSGPRP,-0.427
21,RRIRERPPRLPRPRPRPIILPRP,-0.136
22,RRIRWRPPRLPRPRPRPTHAPRP,0.787
23,RRIRMRPPRLPRPRPRPPSGPRP,0.525
24,RRIRPRPPRLPRPRPRPCVTPRP,0.15
25,RRIRYRPPRLPRPRPRPSHCPRP,-0.549

row,Sequence,shrunken log2 fold change
1,RRIRRRPPRLPRPRPRPAVAPRP,0.66
2,RRIRDRPPRLPRPRPRPLWWPRP,0.721
3,RRIRLRPPRLPRPRPRPHHIPRP,-0.343
4,RRIRLRPPRLPRPRPRPIFYPRP,-0.223
5,RRIRRRPPRLPRPRPRPEQVPRP,-0.0118
6,RRIRERPPRLPRPRPRPMDCPRP,-0.149
7,RRIRMRPPRLPRPRPRPRNPPRP,3.17
8,RRIRGRPPRLPRPRPRPAWYPRP,0.405
9,RRIRDRPPRLPRPRPRPHTRPRP,0.013
10,RRIRQRPPRLPRPRPRPTLAPRP,0.783
11,RRIRNRPPRLPRPRPRPRSWPRP,0.201
12,RRIRWRPPRLPRPRPRPDSVPRP,-0.0816
13,RRIRCRPPRLPRPRPRPITFPRP,-0.167
14,RRIRDRPPRLPRPRPRPFAFPRP,0.249
15,RRIRFRPPRLPRPRPRPSHEPRP,0.204
16,RRIRLRPPRLPRPRPRPPELPRP,0.389
17,RRIRDRPPRLPRPRPRPMWIPRP,-0.306
18,RRIRLRPPRLPRPRPRPHTHPRP,-0.441
19,RRIRCRPPRLPRPRPRPSIEPRP,-0.123
20,RRIRDRPPRLPRPRPRPVIEPRP,0.662
21,RRIRPRPPRLPRPRPRPWAWPRP,0.0719
22,RRIRARPPRLPRPRPRPEFCPRP,0.83
23,RRIRNRPPRLPRPRPRPHPFPRP,-0.0852
24,RRIRFRPPRLPRPRPRPHRMPRP,-0.15
25,RRIRVRPPRLPRPRPRPLHVPRP,-0.311
